Laboratory results from article PMC4051777, “Characterization of an Alkali- and Halide-Resistant Laccase Expressed in E. coli: CotA from Bacillus clausii” (PLoS ONE, 2014).

B1: cotA from B. subtilis (Bacillus subtilis subsp. subtilis str. 168) (protein)
chain: MTLEKFVDALPIPDTLKPVQQSKEKTYYEVTMEECTHQLHRDLPPTRLWGYNGLFPGPTIEVKRNENVYVKWMNNLPSTHFLPIDHTIHHSDSQHEEPEVKTVVHLHGGVTPDDSDGYPEAWFSKDFEQTGPYFKREVYHYPNQQRGAILWYHDHAMALTRLNVYAGLVGAYIIHDPKEKRLKLPSDEYDVPLLITDRTINEDGSLFYPSAPENPSPSLPNPSIVPAFCGETILVNGKVWPYLEVEPRKYRFRVINASNTRTYNLSLDNGGDFIQIGSDGGLLPRSVKLNSFSLAPAERYDIIIDFTAYEGESIILANSAGCGGDVNPETDANIMQFRVTKPLAQKDESRKPKYLASYPSVQHERIQNIRTLKLAGTQDEYGRPVLLLNNKRWHDPVTETPKVGTTEIWSIINPTRGTHPIHLHLVSFRVLDRRPFDIARYQESGELSYTGPAVPPPPSEKGWKDTIQAHAGEVLRIAATFGPYSGRYVWHCHILEHEDYDMMRPMDITDPHK
notes: full length, 1542-bp PCR product from genomic DNA in pETM13 (p130), E. coli BL21(DE3); no fusions or tailing amino acids
B2: cotA from B. clausii (Shouchella clausii KSM-K16) (protein)
chain: MELEKFVDPMPIMKTAIPKKTSKDGDYYEIEMKEFSQKLHRDLNPTRLWGYDGQFPGPTIEVMRGKPARIKWMNNLPDTHFLPIDRSIHHVAHEPEVRTVVHLHGSETTPASDGYPEAWFTKDFAEVGSFFEQETYEYPNDQRAATLWYHDHAMGITRLNVYAGLSGLYIIRDPREEQLNLPKGEFDIPLLIQDRSFNDDGSLFYPAQPANPAPNLPNPSVLPFFVGDTILVNGKVWPYLQVEPRKYRFRILNGSNSRSYQLALDSEAPFYQIASDGGLLRRTVSLQAFDIRPAERIEAIIDFSKFEGQTITLKNNASTDATADVMQFQVVLPLSGEDTSIIPQNLSYIPSLQQNDVKRIRNLKISGTTDEYGRPLLLLNNKLWSDPVEEKPCLGTTEIWSFVNVTNVPHPMHIHLVQFQLLDHRAFNVELYNENGQIELVGPTIPPKINERGWKDTITAPAGQITRVIARFAPFSGYYVWHCHILEHEDYDMMRPFVVIDPKTEKERR
notes: full length, codon-optimized gene in pETM13 (p133), E. coli BL21(DE3)

Columns and labels:
purified protein [1] = substrate: COc1cccc(OC)c1O; experiment: purified protein; assay type: biochemical, Bacillus subtilis; details: pH 7, O2 as co-substrate, DMP 0-12.5 mM, substrate inhibition at high DMP
purified protein [2] = substrate: COc1cccc(OC)c1O; experiment: purified protein; assay type: biochemical, Shouchella clausii; details: pH 7 (implied by context), O2 as co-substrate, DMP 0-12.5 mM, substrate inhibition at high DMP

| Protein | Km (purified protein [1]) [µM] | Km (purified protein [2]) [µM] |
| --- | --- | --- |
| B1 | 340 |  |
| B2 |  | 1020 |
